These results are taken from publication PMC10235943.

Experiment [1] concerns the target endogenous IP3R1 (UniProt Q14643). Nature of the experiment: sucrose density gradient fractionation.
The target in experiment [2] is transiently expressed IP3R1 (wild type) (human) (UniProt Q14643). Nature of the experiment: sucrose density gradient fractionation.

transiently expressed IP3R1 (wild type), Q14643-1 1-2758 (receptor), sequence (Q14643 whole entry): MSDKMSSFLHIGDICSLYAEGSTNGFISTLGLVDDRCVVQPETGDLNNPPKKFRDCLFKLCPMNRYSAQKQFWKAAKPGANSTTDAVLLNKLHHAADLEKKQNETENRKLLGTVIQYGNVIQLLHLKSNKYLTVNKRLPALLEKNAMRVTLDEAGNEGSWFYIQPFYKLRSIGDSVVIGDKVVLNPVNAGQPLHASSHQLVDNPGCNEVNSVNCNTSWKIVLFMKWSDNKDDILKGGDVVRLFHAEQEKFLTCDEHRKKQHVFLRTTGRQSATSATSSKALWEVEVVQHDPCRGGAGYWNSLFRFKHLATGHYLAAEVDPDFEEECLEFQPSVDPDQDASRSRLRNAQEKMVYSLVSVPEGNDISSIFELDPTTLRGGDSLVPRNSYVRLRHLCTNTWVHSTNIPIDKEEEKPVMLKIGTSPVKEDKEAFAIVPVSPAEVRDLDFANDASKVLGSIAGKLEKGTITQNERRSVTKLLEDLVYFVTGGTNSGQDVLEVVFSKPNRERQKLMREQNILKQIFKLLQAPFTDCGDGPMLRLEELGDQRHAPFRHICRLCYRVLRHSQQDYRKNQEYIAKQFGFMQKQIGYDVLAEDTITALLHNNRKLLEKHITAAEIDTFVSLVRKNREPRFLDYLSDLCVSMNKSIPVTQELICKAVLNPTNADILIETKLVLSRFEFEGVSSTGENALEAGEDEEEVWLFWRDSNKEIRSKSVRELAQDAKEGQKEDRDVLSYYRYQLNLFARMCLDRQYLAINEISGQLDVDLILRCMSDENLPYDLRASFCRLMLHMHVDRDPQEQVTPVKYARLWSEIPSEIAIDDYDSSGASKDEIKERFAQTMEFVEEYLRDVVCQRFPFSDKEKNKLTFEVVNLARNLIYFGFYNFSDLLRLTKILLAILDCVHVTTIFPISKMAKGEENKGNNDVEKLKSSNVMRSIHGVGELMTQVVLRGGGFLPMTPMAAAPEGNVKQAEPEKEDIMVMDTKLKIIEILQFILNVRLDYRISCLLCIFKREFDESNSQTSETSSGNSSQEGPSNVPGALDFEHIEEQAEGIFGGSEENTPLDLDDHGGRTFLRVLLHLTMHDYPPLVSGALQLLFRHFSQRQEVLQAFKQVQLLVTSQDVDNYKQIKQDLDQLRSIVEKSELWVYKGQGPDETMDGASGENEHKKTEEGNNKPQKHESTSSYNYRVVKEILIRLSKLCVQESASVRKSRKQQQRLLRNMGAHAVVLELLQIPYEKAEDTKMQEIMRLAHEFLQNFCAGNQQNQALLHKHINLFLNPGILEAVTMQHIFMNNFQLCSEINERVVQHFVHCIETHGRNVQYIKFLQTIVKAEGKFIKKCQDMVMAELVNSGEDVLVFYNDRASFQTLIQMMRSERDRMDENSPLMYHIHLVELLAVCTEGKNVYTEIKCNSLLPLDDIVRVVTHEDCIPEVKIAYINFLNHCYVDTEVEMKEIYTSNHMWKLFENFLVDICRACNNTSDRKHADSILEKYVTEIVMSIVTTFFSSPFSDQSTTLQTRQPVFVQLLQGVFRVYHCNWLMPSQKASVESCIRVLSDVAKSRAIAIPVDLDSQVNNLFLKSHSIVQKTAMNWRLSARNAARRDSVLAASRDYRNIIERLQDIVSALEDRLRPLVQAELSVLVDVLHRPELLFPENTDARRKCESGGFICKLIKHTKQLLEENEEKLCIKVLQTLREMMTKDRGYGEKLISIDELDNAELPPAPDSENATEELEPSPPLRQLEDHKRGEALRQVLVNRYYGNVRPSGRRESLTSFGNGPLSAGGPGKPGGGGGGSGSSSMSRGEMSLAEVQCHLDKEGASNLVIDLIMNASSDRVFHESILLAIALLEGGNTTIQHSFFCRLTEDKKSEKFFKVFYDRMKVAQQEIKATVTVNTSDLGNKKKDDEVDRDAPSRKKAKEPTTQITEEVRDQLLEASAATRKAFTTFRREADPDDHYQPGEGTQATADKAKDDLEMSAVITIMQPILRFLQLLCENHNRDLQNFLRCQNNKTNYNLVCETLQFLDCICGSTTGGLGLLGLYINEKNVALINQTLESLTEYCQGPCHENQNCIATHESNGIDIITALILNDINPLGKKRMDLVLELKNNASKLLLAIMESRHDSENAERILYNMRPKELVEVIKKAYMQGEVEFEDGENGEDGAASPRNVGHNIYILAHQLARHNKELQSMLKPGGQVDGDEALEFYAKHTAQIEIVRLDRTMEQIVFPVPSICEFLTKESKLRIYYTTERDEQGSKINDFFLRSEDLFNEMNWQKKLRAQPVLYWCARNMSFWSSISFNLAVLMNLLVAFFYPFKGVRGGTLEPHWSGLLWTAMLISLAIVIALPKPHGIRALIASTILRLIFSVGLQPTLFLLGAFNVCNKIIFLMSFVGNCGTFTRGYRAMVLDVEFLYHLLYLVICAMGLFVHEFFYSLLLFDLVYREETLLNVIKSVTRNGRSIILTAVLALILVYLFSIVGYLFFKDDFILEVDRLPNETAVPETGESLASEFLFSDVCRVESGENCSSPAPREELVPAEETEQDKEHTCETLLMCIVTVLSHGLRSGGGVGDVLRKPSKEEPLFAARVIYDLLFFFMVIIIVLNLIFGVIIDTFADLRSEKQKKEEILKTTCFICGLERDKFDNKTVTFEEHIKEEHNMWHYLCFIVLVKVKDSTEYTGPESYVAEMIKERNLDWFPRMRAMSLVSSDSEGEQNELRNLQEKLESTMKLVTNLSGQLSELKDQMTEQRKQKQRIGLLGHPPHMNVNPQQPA

Take “endogenous IP3R1, Q14643-1 1-2758 (receptor)”: the stoichiometry N in experiment [1] was found to be 4.

Turning to “transiently expressed IP3R1 (wild type), Q14643-1 1-2758 (receptor)”, the stoichiometry N in experiment [2] stood at 4.

What is called stoichiometry N is a count of units in the complex or per binding partner.
